Data set [1] addresses T1, GST-rbFOX1 (UniProt Q9NWB1).
T1 sequence: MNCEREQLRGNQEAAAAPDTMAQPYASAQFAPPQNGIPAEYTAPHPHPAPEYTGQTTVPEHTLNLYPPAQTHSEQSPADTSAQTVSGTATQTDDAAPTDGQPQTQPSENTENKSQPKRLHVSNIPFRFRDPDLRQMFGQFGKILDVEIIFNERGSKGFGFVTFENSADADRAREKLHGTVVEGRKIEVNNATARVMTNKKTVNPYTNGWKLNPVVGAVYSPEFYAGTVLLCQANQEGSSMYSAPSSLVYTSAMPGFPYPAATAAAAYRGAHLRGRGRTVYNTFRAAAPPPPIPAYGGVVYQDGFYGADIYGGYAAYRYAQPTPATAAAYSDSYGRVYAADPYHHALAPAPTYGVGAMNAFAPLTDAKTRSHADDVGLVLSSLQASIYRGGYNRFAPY
Put plainly: EMSA. To be noted: apparent KD; EMSA: 50 mM Tris-HCl pH 7.0, 75 mM NaCl, 37.5 mM KCl, 0.75 mM MgCl2, 5.25 mM DTT, 0.1 mg/mL BSA, 0.1 mg/mL bulk tRNA, 0.4 U/uL RNAsin, 20 min on ice, 10 pM …. On the technique in general: A gel shift assay detects complexes by their altered migration in electrophoresis.

In data set [2] the target is T2, rbFOX1 RRM (UniProt Q9NWB1 117-193).
T2 sequence: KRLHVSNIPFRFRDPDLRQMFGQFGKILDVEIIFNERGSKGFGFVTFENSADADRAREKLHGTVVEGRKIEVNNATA
In words: NMR; 15N-1H HSQC; EMSA: 50 mM Tris-HCl pH 7.0, 75 mM NaCl, 37.5 mM KCl, 0.75 mM MgCl2, 5.25 mM DTT, 0.1 mg/mL BSA, 0.1 mg/mL bulk tRNA, 0.4 U/uL RNAsin, 20 min on ice, 10 pM RNA; gel at 4 C. To be noted: protein: recombinant.

For the molecule “GGGAGACCCAAGCUGGCUAGCGUUUAAACUUAAGCUUCCUGCCUGCCUGCCUGCCUGCCUGCCUGCCUGCCUGCCUGCCUGCCUGCCUGCCUGCCUGCCUGCCUGCCUGCCUGCCUGCCUGCCUGCCUGCCUGCCUGCCUGCCUGCCUGCCUGCCUGCCUGCCUGCCUGCCUGCCUGCCUGCCUGCCUGCCUGCCUGCCUGCCUGCCUGCCUGCCUGCCUGCCUGCCUGCCUGCCUGCCUGCCUGCCUGCCUGCCUGCCUGCCUGCCUGCCUGCCUGCCUGCCUGCCUGCCUGCCUGCCUGCCUGCCUGCCUGCCUGCCUGCCUGCCUGCCUGCCUGCCUGCCUGCCUGCCUGCCUGCCUGCCUGCCUGCCUGCCUGCCUGCCUGCCUGCCUGCCUGCCUGCCUGCCUGCCUGCCUGCCUGCCUGCCUGCCUGCCUGG [(CCUG)100]”, the Kd in data set [1] was found to be 3.2 nM. On to “GGGAGACCCAAGCUGGCUAGCGUUUAAACUUAAGCUUCCUGCCUGCCUGCCUGCCUGCCUGCCUGCCUGCCUGCCUGG [(CCUG)10]”, for which the Kd in data set [1] was determined as 9.7 nM.

“GGGAGACCCAAGCUGGCUAGCGUUUAAACUUAAGCUUCCUGCCUGCCUGCCUGCCUGCCUGCCUGCCUGCCUGCCUGCCUGCCUGCCUGCCUGCCUGCCUGCCUGCCUGCCUGCCUGCCUGCCUGCCUGCCUGCCUGCCUGCCUGCCUGCCUGCCUGG [(CCUG)30]”: in data set [1], the Kd came out at 6.3 nM. As for UGCCUGC (ssRNA) [UGCCUGC (NMR)], the binding result in data set [2] is listed as “binds”.

As for UGCAUGU (ssRNA) [UGCAUGU (NMR)], the binding result in data set [2] is given as “binds”.
